How the values were obtained:
[1] = target: T1, SIGLEC-8 transiently expressed on cells (UniProt Q9NYZ4 17-499, limits assumed); experiment: cell binding titration, transient SIGLEC-8 line
T1 construct: whole, on cells; Two cassettes are described (P2A mVenus and direct mVenus fusion); also called the transient line; pTT5-SIGLEC-8 P2A mVenus

[2] = target: Sialic acid-binding immunoglobulin-like lectin 8 (SIGLEC-8), antigen of the Carterra SPR studies (UniProt Q9NYZ4 17-363, limits assumed); experiment: Carterra SPR kinetics, sensorgram panel
Outline: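 Binding kinetics of antibodies to SIGLEC-8 were measured by surface plasmon resonance on a Carterra instrument. The antibodies came from synthetic antibody libraries panned over four rounds with a bead-based strategy and screened by clonal ELISA. Selected clones were expressed and purified before testing. The read-outs are rate constants, dissociation constants or results from these kinetic runs.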

Sialic acid-binding immunoglobulin-like lectin 8 (SIGLEC-8), antigen of the Carterra SPR studies, sequence (Q9NYZ4 17-363 limits assumed): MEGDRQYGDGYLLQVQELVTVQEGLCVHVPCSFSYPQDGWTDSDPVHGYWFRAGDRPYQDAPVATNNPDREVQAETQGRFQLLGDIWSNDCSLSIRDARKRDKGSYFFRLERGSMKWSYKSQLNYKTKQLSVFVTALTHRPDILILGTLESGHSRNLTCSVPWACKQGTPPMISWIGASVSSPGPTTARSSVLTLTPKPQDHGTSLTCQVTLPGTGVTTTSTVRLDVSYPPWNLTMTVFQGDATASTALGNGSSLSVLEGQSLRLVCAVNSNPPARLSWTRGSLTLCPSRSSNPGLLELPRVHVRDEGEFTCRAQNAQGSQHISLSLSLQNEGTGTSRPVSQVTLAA
T1 sequence (Q9NYZ4 17-499 limits assumed): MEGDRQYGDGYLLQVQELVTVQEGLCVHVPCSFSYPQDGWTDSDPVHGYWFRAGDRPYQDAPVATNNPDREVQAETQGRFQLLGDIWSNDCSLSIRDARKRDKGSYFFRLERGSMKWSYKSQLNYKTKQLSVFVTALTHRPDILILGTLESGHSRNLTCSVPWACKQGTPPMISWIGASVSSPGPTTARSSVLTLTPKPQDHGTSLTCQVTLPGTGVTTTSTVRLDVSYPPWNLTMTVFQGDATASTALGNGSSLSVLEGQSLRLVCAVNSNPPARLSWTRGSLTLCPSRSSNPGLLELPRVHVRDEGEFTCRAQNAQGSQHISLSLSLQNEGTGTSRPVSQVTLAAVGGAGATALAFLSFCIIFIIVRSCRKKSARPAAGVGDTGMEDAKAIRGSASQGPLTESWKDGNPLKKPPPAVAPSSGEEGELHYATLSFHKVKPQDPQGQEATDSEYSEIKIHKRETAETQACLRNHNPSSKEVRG

B1: SIGLEC-8-27 (antibody, human IgG1, kappa, V domains shown)
VH: EVQLLESGGGLVQPGGSLRLSCAASGFTFSNHVMSWVRQAPGKGLEWVSAISGSGASTYYADSVKGRFTISRDNSKNTLYLQMNSLRAEDTAVYYCARAPIAVAGTADHWGQGTLVTVSS
VL: DIQMTQSPSSLSASVGDRVTITCRASQSIGSDLNWYQQKPGKAPKLLIYGASRLESGVPSRFSGSGSGTDFTLTISSLQPEDFATYYCQQTFTNTPLTFGGGTKVEIKR
notes: tested as expressed and purified mAb
[1]
  EC50: 0.904 µM
[2]
  binding result: no binding

From patent publication US20260001953A1 (TWIST BIOSCIENCE, published 2026)
